Test results taken from patent publication US20220411495A1, “POSITIVE ALLOSTERIC MODULATORS OF THE CALCIUM-SENSING RECEPTOR” (VIB VZW, priority 2019, published 2022).

Molecular target: T1, human CaSR wild type (hCaSR WT) (Homo sapiens, UniProt P41180, E1011Q)
T1 construct: mGlu5 signal peptide (N, cleaved yes); expressed in transfected cells
T1 sequence (P41180 20-1078 E1011Q): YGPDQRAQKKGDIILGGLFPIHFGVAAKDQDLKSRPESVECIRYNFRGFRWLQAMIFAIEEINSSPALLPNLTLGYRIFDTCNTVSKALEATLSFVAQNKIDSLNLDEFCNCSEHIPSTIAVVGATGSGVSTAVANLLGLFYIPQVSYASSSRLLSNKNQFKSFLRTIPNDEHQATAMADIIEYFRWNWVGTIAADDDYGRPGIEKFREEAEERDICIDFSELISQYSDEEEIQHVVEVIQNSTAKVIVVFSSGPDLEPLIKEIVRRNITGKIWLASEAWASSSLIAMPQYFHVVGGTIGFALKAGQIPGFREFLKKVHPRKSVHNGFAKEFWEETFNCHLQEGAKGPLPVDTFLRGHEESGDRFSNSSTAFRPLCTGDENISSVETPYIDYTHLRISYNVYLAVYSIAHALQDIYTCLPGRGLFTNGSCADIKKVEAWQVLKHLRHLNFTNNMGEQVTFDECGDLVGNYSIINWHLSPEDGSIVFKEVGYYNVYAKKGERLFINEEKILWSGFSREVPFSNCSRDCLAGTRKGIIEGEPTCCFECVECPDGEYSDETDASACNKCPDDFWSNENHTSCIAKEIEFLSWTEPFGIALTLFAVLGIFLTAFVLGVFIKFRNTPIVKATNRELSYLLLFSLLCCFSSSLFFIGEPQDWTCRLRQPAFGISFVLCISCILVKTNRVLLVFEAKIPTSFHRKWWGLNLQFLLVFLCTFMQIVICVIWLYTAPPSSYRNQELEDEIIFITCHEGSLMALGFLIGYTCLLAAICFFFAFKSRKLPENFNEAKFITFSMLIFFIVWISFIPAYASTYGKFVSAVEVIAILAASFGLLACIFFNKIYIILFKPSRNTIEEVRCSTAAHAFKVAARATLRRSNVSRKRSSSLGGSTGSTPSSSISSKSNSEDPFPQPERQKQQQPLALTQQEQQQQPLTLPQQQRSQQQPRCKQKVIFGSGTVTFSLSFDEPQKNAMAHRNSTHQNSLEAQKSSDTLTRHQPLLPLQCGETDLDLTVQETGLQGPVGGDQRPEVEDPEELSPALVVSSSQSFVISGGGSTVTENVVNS
Experiment: IP1 accumulation assay, Flp-In HEK293 HA-hCaSR WT cells
Assay type: cell-based
Method: Nanobodies were successfully purified by immobilized metal ion affinity chromatography (IMAC) and size exclusion chromatography (SEC) prior to pharmacological characterization (FIG. 1). Each nanobody was initially screened for Gq/11 activity in the Cisbio IP1 accumulation assay as this is the primary signaling pathway of CaSR (Chavez-Abiega et al., 2020). Whole HEK293 HA-hCaSR WT cells were pre-incubated for 30 minutes at 37° C. with a fixed nanobody concentration (5 μM) prior to stimulation with the endogenous ligand Ca^2+. The well characterized positive allosteric modulator (PAM) chemical NPS R-568 and negative allosteric modulator (NAM) chemical NPS 2143 were added as reference compounds. […] No nanobodies with agonist or NAM activity were observed when all nanobodies screened in the absence or in the presence of EC80 Ca^2+, respectively (FIGS. 4A and 4B). […] Except for CaSR Nb5, the same nanobodies acted as PAMs when ERK1/2 phosphorylation was measured in the presence of EC20 Ca^2+ (FIG. 2B). Again, none of the nanobodies elicited an agonist or NAM response (FIGS. 5B and 5C).
All cell lines utilized in this study were grown at 37° C. and 5% CO2. The HEK293A (RRID: CVCL_6910) and stable Flp-In HEK293 cells were cultured in Dulbecco's Modified Eagle Medium (DMEM, #31966021) supplemented with 10% dialyzed Fetal Bovine Serum (dFBS) and 1% 10,000 units/mL penicillin and 10,000 μg/mL streptomycin mixture (pen/strep). The stable Flp-In CHO cells were cultured in F-12K medium (#21127022) supplemented with 10% dFBS and 1% pen/strep. Additionally, the stable Flp-In HEK293 and Flp-In CHO cell lines were cultured in the presence of respectively 200 and 500 μg/mL hygromycin B. For pharmacological characterization, Flp-In HEK293 HA-hCaSR WT cells were seeded in poly-D-lysine-coated clear 96 well tissue culture plates (Corning, Corning, N.Y., USA) at a density of 50,000 cells/well 18 h prior to assay. Experiments with HA-rCaSR WT and HA-hCaSR S170A required transient transfection of HEK293A cells 24 h prior to assay. DNA construct and Lipofectamine 2000 were diluted in Opti-MEM and mixed together after 5 minutes incubation at room temperature. For HA-rCaSR WT, 30 ng/well rCaSR DNA diluted in 25 μL/well Opti-MEM was mixed with 0.25 μL/well Lipofectamine 2000 in 25 μL/well Opti-MEM. For HA-hCaSR S170A, 40 ng/well […] DNA diluted in 25 μL/well Opti-MEM was mixed with 0.25 μL/well Lipofectamine 2000 in 25 μL/well Opti-MEM. The DNA:Lipofectamine 2000 mixtures were incubated 20 minutes at room temperature after which 50 μL/well was added to a poly-D-lysine-coated clear 96 well tissue culture plate. Next, 100 μL/well of a 400,000 cells/mL HEK293A cell solution prepared in culture media was added and the plate was placed at 37° C. and 5% CO2 (final cell density 40,000 cells/well).
Inositol monophosphate (IP1) accumulation was measured using the commercially available HTRF® IP1 accumulation kit (Cisbio Bioassays, Codolet, France) and an EnVision multimode plate reader (PerkinElmer, Waltham, Mass., USA). Unless stated otherwise, the cells were washed once with 100 μL/well assay buffer and stimulated for 30 minutes at 37° C. with 50 μL/well ligand(s) diluted in assay buffer supplemented with 20 mM LiCl. Following stimulation, the cells were washed once with 100 μL/well and lysed for 30 minutes at room temperature with 30 μL/well lysis buffer provided with the kit. The lysed cells were diluted 1:2 with assay buffer after which 10 μL/well was pipetted to a white 384-well OptiPlate (PerkinElmer, Waltham, Mass., USA). Next, 10 μL of a detection solution consisting of 2.5% IP1-d2 conjugate and 2.5% anti-IP1 antibody diluted in assay buffer was added to each well. Fluorophore emissions were measured after the plate was stored in the dark for 1 h. The 615/665 nm emission ratios measured upon excitation at 340 nm were converted to IP1 concentrations with an IP1 standard curve according to the manufacturer's instructions.

B1: Nb37: llama-derived CaSR-specific nanobody acting as PAM, SEQ ID NO:4 (protein)
VHH: QVQLVESGGGLVQPGDSLRVSCAASGGSFRSYAMAWFRRAPGKEREFVAAMSGTYGSTIYADSMKGRFTISRDNAKKMVYLRMNSLRAEDTAVYYCAGYYSGAYYGTPKTDYTEYDSWGQGTQVTVSS
modifications: CaSR Nb37
Max. response (fold over basal ± S.E.M.), human ortholog (IP1 accumulation at EC20 Ca2+): 4.04 ± 0.32 fold over basal | Potency (pEC50 ± S.E.M.), human ortholog (IP1 accumulation at EC20 Ca2+, three independent experiments in triplicate): 6.22 ± 0.05 | PAM activity in IP1 accumulation screen (fixed nanobody concentration 5 μM, EC20 Ca2+, 30 min pre-incubation): potentiated IP1 accumulation
